{
  "source": "patent US20140087972",
  "about": "“METHOD OF IMMOBILISING RNA ONTO A SURFACE” (UNIVERSITY OF PORTSMOUTH, published 2014)",
  "binders": {"B1": {"name": "MicA RNA without aptamer (ssRNA)", "RNA": "GGGGAAAGACGCGCAUUUGUUAUCAUCAUCCCUGAAUUCAGAGAUGAAAUUUUGGCCACUCACGAGUGGCCUUUU"}, "B2": {"name": "M-SSAApt RNA (ssRNA)", "RNA": "GAAAGACGCGCAUUUGUUAUCAUCAUCCCUGGGAAAGCGAGGCUUUCCCUGGCCACUCACGAGUGGCCUUUUACACACACACACACACACACGCAUGCAUACCGACCAGAAUCAUGCAAGUGCGUAAGAUAGUCGCGGGCCGGGAUGCAUGC"}, "B3": {"name": "MicASAApt RNA (ssRNA)", "RNA": "GGGGAAAGACGCGCAUUUGUUAUCAUCAUCCCUGAAUUCAGAGAUGAAAUUUUGGCCACUCACGAGUGGCCUUUUACACACACACACACACACACGCAUGCAUACCGACCAGAAUCAUGCAAGUGCGUAAGAUAGUCGCGGGCCGGGAUGCAUGC"}, "B4": {"name": "Qrr1SAApt RNA (ssRNA)", "RNA": "GGGUGACCCGCAAGGGUCACCUAGCCAACUGACGUUGUUAGUGAAUAAUCAAUGUUCACAAAUAACAGCCAAUAGACUCAUUCUAUUGGCUAUUUUUUUUUUUUUUUUUUUUUUUUUUUUGUGUGACCGACCAGAAUCAUGCAAGUGCGUAAGAUAGUCGCGGGCCGGGCACACA"}, "B5": {"name": "U1SAApt RNA (ssRNA)", "RNA": "GGGUAUCCAUUGCACUCCGGAUGCCUUUUUUUUUUUUUUUUUUUUUGUGUGACCGACCAGAAUCAUGCAAGUGCGUAAGAUAGUCGCGGGCCGGGCACACA"}},
  "key": {"[1]": {"target": "T1, streptavidin (UniProt P22629 P22629:25-183)", "T1 sequence (P22629 25-183, one chain of several)": "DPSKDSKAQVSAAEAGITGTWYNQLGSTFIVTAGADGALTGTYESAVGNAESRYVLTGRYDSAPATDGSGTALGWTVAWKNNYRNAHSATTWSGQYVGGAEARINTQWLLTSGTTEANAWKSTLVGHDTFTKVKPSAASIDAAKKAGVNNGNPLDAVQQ", "assay": "no-aptamer control, sandwich print slide capture, 37 C, PBS washes", "conditions": "chain copies: 4 inferred; label: Cy3-UTP incorporated", "protocol": "(§1) ˜10 μl spots of 5 mM tobramycin or 16.6 μM streptavadin in PBS were pipetted onto NHS-activated slides (Schott Nexterion Slide H). The slides were incubated at 37° C. in a humidified petri dish for ˜1 hour. The slides were washed ˜3× with ˜5 ml PBST (0.5% Tween) and ˜1× with H₂O. The remainder of the NHS-activated surface was blocked with ethanolamine. ˜5 ml of 50 mM ethanolamine-HCl was used to cover the slides and they were incubated at room temperature for ˜1 hr. The slides were washed ˜3× with ˜5 ml PBST (0.5% Tween), 1× with H₂O and dried in air.\n(§2) Following incubation at 37° C. for ˜1-4 hrs, the slides were separated and the in vitro transcription mix was recovered from the slide surface using a pipette. The DNA template slide was washed ˜3× with ˜5 ml PBS, ˜1× with ˜5 ml H₂O and air dried. The RNA-binding slide was washed ˜3× with ˜5 ml PBS, ˜1×˜5 ml H₂O and air dried. Cy-labelled RNA was visualized at 532 nm for Cy3 or 639 nm for Cy5. For unlabelled RNA, the RNA-binding slide was stained by covering the slide with ˜5 ml SYBR gold (Invitrogen, Paisley, UK; 5 μl of SYBR gold in ˜25 ml PBS) for 10 minutes and visualised with a UV transilluminator.\n(§3) Only the MicASAApt, incorporating the stretpavadin aptamer, bound to the streptavidin RNA-binding slide. […]"}, "[2]": {"target": "T1, streptavidin", "assay": "bound streptavidin spot on slide also carrying tobramycin spot, 37 C, PBS washes", "conditions": "chain copies: 4 inferred; label: Cy3-UTP incorporated", "protocol": "as §1, §2"}, "[3]": {"target": "T1, streptavidin", "assay": "sandwich print slide capture, T7 transcription mix, 37 C, PBS washes", "conditions": "chain copies: 4 inferred; label: Cy3-UTP incorporated", "protocol": "as §1, §2, §3"}, "[4]": {"target": "T1, streptavidin", "assay": "sandwich print slide capture, 37 C, PBS washes", "conditions": "chain copies: 4 inferred"}},
  "data": [
    {"binder": "B1", "values": [
      {"measurement": "binding result", "setting": "[1]", "value": "no binding"}
    ]},
    {"binder": "B2", "values": [
      {"measurement": "binding result", "setting": "[2]", "value": "binds"}
    ]},
    {"binder": "B3", "values": [
      {"measurement": "binding result", "setting": "[3]", "value": "binds"}
    ]},
    {"binder": "B4", "values": [
      {"measurement": "binding result", "setting": "[4]; label: Cy5-UTP incorporated", "value": "binds"}
    ]},
    {"binder": "B5", "values": [
      {"measurement": "binding result", "setting": "[4]; label: Cy3-UTP incorporated", "value": "binds"}
    ]}
  ]
}
